Results as given in patent publication US20200149062.

Sequence of ERK2 (P28482 2-360): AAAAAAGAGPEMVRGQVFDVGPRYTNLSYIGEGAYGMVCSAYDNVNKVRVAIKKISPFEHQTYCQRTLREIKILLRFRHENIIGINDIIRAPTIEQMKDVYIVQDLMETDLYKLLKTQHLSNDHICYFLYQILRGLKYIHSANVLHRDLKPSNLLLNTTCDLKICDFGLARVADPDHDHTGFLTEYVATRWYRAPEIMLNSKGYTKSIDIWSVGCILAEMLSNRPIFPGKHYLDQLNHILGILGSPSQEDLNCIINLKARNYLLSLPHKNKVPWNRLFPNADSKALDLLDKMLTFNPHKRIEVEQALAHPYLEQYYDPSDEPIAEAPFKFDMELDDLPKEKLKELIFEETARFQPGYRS

ERK2
TSC2 radiolabeling with [gamma-33P]-ATP (in vitro kinase assay on FLAG-immune-precipitate) (WT-TSC2-FLAG): ERK2-TSC2 phosphorylation served as a positive control

modified PKG (M438G)
thiophosphate ester labeling of TSC2 (TSC2-FLAG SA (S1365A)): both radioactive or thiophosphate ester labeling of TSC2 was also seen when SA TSC2 was used

recombinant PKG (purified active PKG)
radioactive labeling of TSC2 ([gamma-33P]-ATP, autoradiography) (TSC2-FLAG SA (S1365A)): both radioactive or thiophosphate ester labeling of TSC2 was also seen when SA TSC2 was used
